“And” between values parts separate entries of the source, which are not always exact repeats. Equal entries are not always repeated. “Also recorded” adds a separate entry of the source.
What was measured:
[1] = target: T1, carboxylic acid reductase (Nocardia iowensis, UniProt Q6RKB1); assay: 13C NMR study of benzoyl-AMP reduction by purified carboxylic acid reductase; type: biochemical, Nocardia sp. NRRL 5646; details: 1.4 mM benzoyl-AMP, 2.0 mM NADPH, 20 min. at 20° C.
T1 construct: isolated and substantially purified from Nocardia sp. strain NRRL 5646; endogenous in cells; host or cells: Nocardia sp; NRRL 5646, benzoate-induced culture; enzyme purified by Mono-Q, Reactive Green 19 agarose and hydroxyapatite chromatography
T1 sequence (Q6RKB1 whole entry): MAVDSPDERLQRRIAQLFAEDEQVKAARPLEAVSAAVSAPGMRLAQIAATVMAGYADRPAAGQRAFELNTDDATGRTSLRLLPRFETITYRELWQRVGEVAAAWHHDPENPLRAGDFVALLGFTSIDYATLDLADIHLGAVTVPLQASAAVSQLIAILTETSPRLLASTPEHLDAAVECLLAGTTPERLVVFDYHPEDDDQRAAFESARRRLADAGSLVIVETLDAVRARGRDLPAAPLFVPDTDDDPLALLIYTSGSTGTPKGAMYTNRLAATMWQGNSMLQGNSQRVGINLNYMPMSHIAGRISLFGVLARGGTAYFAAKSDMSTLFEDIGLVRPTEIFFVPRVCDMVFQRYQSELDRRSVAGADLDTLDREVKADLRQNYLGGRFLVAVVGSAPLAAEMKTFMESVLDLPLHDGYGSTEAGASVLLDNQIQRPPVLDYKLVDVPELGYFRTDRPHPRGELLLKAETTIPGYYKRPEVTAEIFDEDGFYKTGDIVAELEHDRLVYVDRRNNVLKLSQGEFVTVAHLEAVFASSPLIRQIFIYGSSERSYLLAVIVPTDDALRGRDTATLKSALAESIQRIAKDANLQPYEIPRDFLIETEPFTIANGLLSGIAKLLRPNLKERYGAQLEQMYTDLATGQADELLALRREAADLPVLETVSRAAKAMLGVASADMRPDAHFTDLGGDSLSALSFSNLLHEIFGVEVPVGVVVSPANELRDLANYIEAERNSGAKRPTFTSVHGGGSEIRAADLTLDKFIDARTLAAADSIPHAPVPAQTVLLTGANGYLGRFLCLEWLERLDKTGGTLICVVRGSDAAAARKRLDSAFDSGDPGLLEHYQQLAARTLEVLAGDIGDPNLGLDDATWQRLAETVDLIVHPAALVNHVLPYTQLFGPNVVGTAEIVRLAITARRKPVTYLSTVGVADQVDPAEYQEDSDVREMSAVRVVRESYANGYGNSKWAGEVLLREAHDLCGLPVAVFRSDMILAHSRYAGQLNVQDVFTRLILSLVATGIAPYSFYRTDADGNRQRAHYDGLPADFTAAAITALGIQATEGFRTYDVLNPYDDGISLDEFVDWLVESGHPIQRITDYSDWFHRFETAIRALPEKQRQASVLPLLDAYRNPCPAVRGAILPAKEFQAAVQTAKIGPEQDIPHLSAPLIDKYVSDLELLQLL
Experimental: Using carboxyl-^13 C labeled benzoyl-AMP, synthesized as described in Example 1, the reduction of benzoyl-AMP to benzaldehyde with the substantially purified carboxylic acid reductase from Nocardia sp. NRRL 5646 was investigated with ^13 C NMR spectroscopy (see, FIG. 1). The substantially purified carboxylic acid reductase from Nocardia sp. NRRL 5646 and all other reagents were prepared or obtained in Example 1.
A 10 μl sample (0.05 units) of the substantially purified carboxylic acid reductase was added to initiate the reaction. A control sample was prepared containing everything except the enzyme. After 20 min. incubation at 20° C., the samples were subjected to NMR analysis. For ^13 C NMR spectroscopy, […] D2 O was added as the locking solvent, and […] of dioxane was added as an internal standard (67.4 ppm). NMR spectra were obtained with a Bruker WM 360-MHZ high-field spectrometer equipped with an IBM Aspect-2000 processor.

[2] = target: T1, carboxylic acid reductase; assay: Enzymatic reduction of vanillic acid to vanillin by purified carboxylic acid reductase; type: biochemical, Nocardia sp. NRRL 5646; details: with ATP and NADPH, purified enzyme
Experimental: The reaction mixture was incubated at 30° C. with gentle shaking for 24 hours, after which the entire reaction mixture was loaded onto a solid phase extraction cartridge (Chem Elut 1200, 200 ml aqueous solution capacity). After 5 min. of equilibration, the cartridge was washed with 2×100 ml of hexane, then washed again with 2×100 ml of dichloromethane (concentrated to less than 2 ml).
The extract was then transferred to a vial and the solvent was removed with a stream of nitrogen to give about 8 mg of the purified vanillin end product.
Mass spectrometry, ^1 H, and ^13 C NMR data confirmed that this compound was vanillin. The yield was determined to be 96% with UV spectrophotometric assay at 340 nm.

[3] = target: T1, carboxylic acid reductase; assay: Rate of carboxylic acid reduction after o-benzylation of vanillic acid (unpublished data); type: biochemical, Nocardia sp. NRRL 5646; details: substrate concentration 5 mM
[4] = system: CC(C)Cc1ccc([C@H](C)C(=O)O)cc1; assay: purified protein, by the assay type; details: other: purified enzyme; mean of three determinations; pH 7.5; 25.0 °C
[5] = system: Nc1ncnc2c1ncn2[C@@H]1O[C@H](COP(=O)(O)OP(=O)(O)OP(=O)(O)O)[C@@H](O)[C@H]1O; assay: purified protein, by the assay type; details: other: purified enzyme; mean of three determinations; pH 7.5; 25.0 °C
[6] = system: CC(C)Cc1ccc([C@@H](C)C(=O)O)cc1; assay: purified protein, by the assay type; details: other: purified enzyme; mean of three determinations; pH 7.5; 25.0 °C
[7] = system: NC(=O)C1=CN([C@@H]2O[C@H](COP(=O)(O)OP(=O)(O)OC[C@H]3O[C@@H](n4cnc5c(N)ncnc54)[C@H](OP(=O)(O)O)[C@@H]3O)[C@@H](O)[C@H]2O)C=CC1; assay: purified protein, by the assay type; details: other: purified enzyme; mean of three determinations; pH 7.5; 25.0 °C
[8] = target: carboxylic acid reductase (aryl aldehyde oxidoreductase) (Nocardia iowensis, UniProt Q6RKB1); assay: Standard aryl-aldehyde oxidoreductase assay: specific activity of the purified enzyme; type: biochemical, Nocardia sp. NRRL 5646; design: isolated and substantially purified from Nocardia sp. strain NRRL 5646; endogenous in cells; host or cells: Nocardia sp; NRRL 5646, benzoate-induced culture; enzyme purified by Mono-Q, Reactive Green 19 agarose and hydroxyapatite chromatography; details: after hydroxyapatite step
Chain of carboxylic acid reductase (aryl aldehyde oxidoreductase) (Q6RKB1 whole entry): as above
Experimental: Enzyme assay. The standard aryl-aldehyde oxidoreductase assay solution contained 0.15 mM […], 1 mM ATP, and 5 mM sodium benzoate, 10 mM MgCl2 and 0.01 to 0.3 units of enzyme in 50 mM Tris-HCl buffer in a final volume of 0.7 ml. The reference cuvette contained all components except for benzoate. Enzyme reactions were initiated by adding enzyme, and they were monitored by recording the absorption decrease at 340 nm at 25° C. with a Shimadzu 160 spectrophotometer. One unit of the carboxylic acid reductase (aryl-aldehyde oxidoreductase) is defined as the amount of enzyme that catalyzes the reduction of 1 μmol benzoate to benzaldehyde per min. under standard assay conditions.
Protein assay. The concentration of protein was measured by the Bradford protein microassay (Bradford, Anal. Biochem. 72:248-254 (1976)), with bovine serum albumin as the standard.

[9] = Stability of the purified enzyme in buffer; type: physicochemical; details: 50 mM pH 7.5 Tris-HCl buffer, 10% glycerol, 8 hr at 4° C.
Experimental: Properties of the carboxylic acid reductase (aryl-aldehyde oxidoreductase).Inclusion of 10% glycerol in all chromatographic buffers was used to stabilize the enzyme. Nevertheless, the purified enzyme in 50 mM pH 7.5 Tris-HCl buffer, containing 10% glycerol, lost nearly […] of its activity in 8 hr at 4° C.

Molecule: Nc1ncnc2c1ncn2[C@@H]1O[C@H](COP(=O)(O)OC(=O)c2ccccc2)[C@@H](O)[C@H]1O [benzoyl AMP]
- reduction of benzoyl-AMP to benzaldehyde [1]: completely reduced; also recorded: quantitatively reduced

Molecule: COc1cc(C(=O)O)ccc1O [vanillic acid, 4-hydroxy-3-methoxybenzoic acid]
- transformation from vanillic acid to vanillin [2]: quantitative
- increase in the rate of carboxylic acid reduction as a result of o-benzylation [3]: more than 15 fold

Molecule: carboxylic acid reductase (aryl-aldehyde oxidoreductase) (Nocardia iowensis)
- Km [4]: 155 µM
- Km [5]: 57.3 µM and 29.3 ± 3.1 µM
- Km [6]: 34.5 µM
- Km [7]: 29.3 µM and 57.3 ± 12.5 µM

B1: Purified carboxylic acid reductase: carboxylic acid reductase (aryl-aldehyde oxidoreductase) isolated and purified from Nocardia sp. strain NRRL 5646 (protein, UniProt Q6RKB1 2-1174, looked up)
Carboxylic acid reductase: AVDSPDERLQRRIAQLFAEDEQVKAARPLEAVSAAVSAPGMRLAQIAATVMAGYADRPAAGQRAFELNTDDATGRTSLRLLPRFETITYRELWQRVGEVAAAWHHDPENPLRAGDFVALLGFTSIDYATLDLADIHLGAVTVPLQASAAVSQLIAILTETSPRLLASTPEHLDAAVECLLAGTTPERLVVFDYHPEDDDQRAAFESARRRLADAGSLVIVETLDAVRARGRDLPAAPLFVPDTDDDPLALLIYTSGSTGTPKGAMYTNRLAATMWQGNSMLQGNSQRVGINLNYMPMSHIAGRISLFGVLARGGTAYFAAKSDMSTLFEDIGLVRPTEIFFVPRVCDMVFQRYQSELDRRSVAGADLDTLDREVKADLRQNYLGGRFLVAVVGSAPLAAEMKTFMESVLDLPLHDGYGSTEAGASVLLDNQIQRPPVLDYKLVDVPELGYFRTDRPHPRGELLLKAETTIPGYYKRPEVTAEIFDEDGFYKTGDIVAELEHDRLVYVDRRNNVLKLSQGEFVTVAHLEAVFASSPLIRQIFIYGSSERSYLLAVIVPTDDALRGRDTATLKSALAESIQRIAKDANLQPYEIPRDFLIETEPFTIANGLLSGIAKLLRPNLKERYGAQLEQMYTDLATGQADELLALRREAADLPVLETVSRAAKAMLGVASADMRPDAHFTDLGGDSLSALSFSNLLHEIFGVEVPVGVVVSPANELRDLANYIEAERNSGAKRPTFTSVHGGGSEIRAADLTLDKFIDARTLAAADSIPHAPVPAQTVLLTGANGYLGRFLCLEWLERLDKTGGTLICVVRGSDAAAARKRLDSAFDSGDPGLLEHYQQLAARTLEVLAGDIGDPNLGLDDATWQRLAETVDLIVHPAALVNHVLPYTQLFGPNVVGTAEIVRLAITARRKPVTYLSTVGVADQVDPAEYQEDSDVREMSAVRVVRESYANGYGNSKWAGEVLLREAHDLCGLPVAVFRSDMILAHSRYAGQLNVQDVFTRLILSLVATGIAPYSFYRTDADGNRQRAHYDGLPADFTAAAITALGIQATEGFRTYDVLNPYDDGISLDEFVDWLVESGHPIQRITDYSDWFHRFETAIRALPEKQRQASVLPLLDAYRNPCPAVRGAILPAKEFQAAVQTAKIGPEQDIPHLSAPLIDKYVSDLELLQLL
- specific activity [8]: 5.9 units/mg of protein
- loss of activity [9]: ~250%

Reference: US6261814A, “Carboxylic acid reductase, and methods of using same” (University of Iowa Research Foundation, priority 1998, dated 2001)
